Measured values taken from publication PMC5940772 (Nature Communications, 2018).

Columns and labels:
[1] = target: His-tagged TRIM25-CC (coiled-coil domain of TRIM25, 189-379) (human, UniProt Q14258 189-379); experiment: BLI; […] (~12 ug/ml); […]; 25 °C; 50 mM HEPES pH 7.5, 150 mM NaCl, 1 mM DTT, 0.005% Tween-20; […]; conditions: both partners purified
crystal structure = target: the molecule itself; experiment: crystal structure
SEC + SEC-MALS = target: the molecule itself; experiment: SEC + SEC-MALS

B1: NS1-ED (effector domain of NS1, 79-230) (domain or fragment)
chain: MTMASVPASRYLTDMTLEEMSRDWSMLIPKQKVAGPLCIRMDQAIMDKNIILKANFSVIFDRLETLILLRAFTEEGAIVGEISPLPSLPGHTAEDVKNAVGVLIGGLEWNDNTVRVSETLQRFAWRSSNENGRPPLTPKQKREMAGTIRSEV
Kd [1]: 16.1 µM

B2: TRIM25-CC (coiled-coil domain of TRIM25, 189-379), tag removed (domain or fragment)
chain: ASLSQASADLEATLRHKLTVMYSQINGASRALDDVRNRQQDVRMTANRKVEQLQQEYTEMKALLDASETTSTRKIKEEEKRVNSKFDTIYQILLKKKSEIQTLKEEIEQSLTKRDEFEFLEKASKLRGISTKPVYIPEVELNHKLIKGIHQSTIDLKNELKQCIGRLQEPTPSSGDPGEHDPASTHKSTRP
binding result (crystal structure): binds

B3: Human TRIM25 CC-PRYSPRY domain (residues 189-630) (domain or fragment)
chain: ASLSQASADLEATLRHKLTVMYSQINGASRALDDVRNRQQDVRMTANRKVEQLQQEYTEMKALLDASETTSTRKIKEEEKRVNSKFDTIYQILLKKKSEIQTLKEEIEQSLTKRDEFEFLEKASKLRGISTKPVYIPEVELNHKLIKGIHQSTIDLKNELKQCIGRLQEPTPSSGDPGEHDPASTHKSTRPVKKVSKEEKKSKKPPPVPALPSKLPTFGAPEQLVDLKQAGLEAAAKATSSHPNSTSLKAKVLETFLAKSRPELLEYYIKVILDYNTAHNKVALSECYTVASVAEMPQNYRPHPQRFTYCSQVLGLHCYKKGIHYWEVELQKNNFCGVGICYGSMNRQGPESRLGRNSASWCVEWFNTKISAWHNNVEKTLPSTKATRVGVLLNCDHGFVIFFAVADKVHLMYKFRVDFTEALYPAFWVFSAGATLSICSPK
notes: also called TRIM25 coiled-coil-PRY-SPRY
stoichiometry N (SEC + SEC-MALS): 2
